Results published in paper doi:10.1101/2022.08.17.504309.

Target: C-type lectin domain of CD62P (P-selectin), residues 1-117, wild type (UniProt P16109)
Assay: ELISA

Chain of UniProt P16109 (P16109 42-158): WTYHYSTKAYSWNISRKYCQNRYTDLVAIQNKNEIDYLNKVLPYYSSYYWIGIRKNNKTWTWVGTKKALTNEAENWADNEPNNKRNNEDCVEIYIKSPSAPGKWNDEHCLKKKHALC

“soluble integrin αvβ3 (from UniProt P06756;P05106) (complex)” was tested. Which fold binding against the combined lectin and EGF-like domains did it give?
Its fold binding against the combined lectin and EGF-like domains is 2 fold.

How did the fold binding against the combined lectin and EGF-like domains turn out when “soluble recombinant integrin αIIbβ3 (from UniProt P08514;P05106) (complex)” was run?
The fold binding against the combined lectin and EGF-like domains was 2 fold.
